This note sets out measurements from patent publication US20250326816A1 (KOREA UNIVERSITY RESEARCH AND BUSINESS FOUNDATION, published 2025).

To fix the notation:
T1: ICOS-L variant Y8 fused to antibody Fc domain (LALAPG) (human, UniProt O75144 19-256)
T1 construct: also called Y8-Fc; not shown: human IgG1 Fc with L234A/L235A/P329G C-terminal to ICOS-L
T1 chain: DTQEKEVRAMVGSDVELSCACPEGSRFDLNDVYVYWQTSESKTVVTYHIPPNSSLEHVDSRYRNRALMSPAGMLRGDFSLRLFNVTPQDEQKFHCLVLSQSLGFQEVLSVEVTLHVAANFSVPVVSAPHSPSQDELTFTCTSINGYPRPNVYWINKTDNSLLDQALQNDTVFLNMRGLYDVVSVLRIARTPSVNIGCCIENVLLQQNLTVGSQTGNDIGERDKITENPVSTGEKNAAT

T2: ATZ (H)-A184: ICOS-L A184 variant fused to the heavy chain of Atezolizumab with LALAPG mutation in the Fc … (Homo sapiens (Human), UniProt O75144 19-256)
T2 construct: Antibody-ligand fusion; ICOS-L at the C-terminal of the heavy chain; not shown: Atezolizumab heavy chain (VH plus IgG1 constant region with LALAPG), atezolizumab light chain, and any linker
T2 chain: T1 chain with P51Q, N52H, H57Y, Q100P

T3: ATZ (L)-Y8_H57N: ICOS-L Y8_H57N variant fused to the light chain of Atezolizumab with LALAPG mutation in the … (Homo sapiens (Human), UniProt O75144 19-256)
T3 construct: Antibody-ligand fusion; ICOS-L at the C-terminal of the light chain; not shown: Atezolizumab light chain (VL plus constant region), atezolizumab heavy chain with LALAPG, and any linker
T3 sequence: T1 chain with H57N

T4: wild-type ICOS-L (Homo sapiens (Human), UniProt O75144 19-256)
T4 construct: also called wild-type Inducible Co-Stimulator-ligand
T4 sequence: T1 chain with P51Q, H57N

B1: ICOS monomer protein (ICOS E21-H129) (receptor, human, UniProt Q9Y6W8 21-129, looked up)
chain: EINGSANYEMFIFHNGGVQILCKYPDIVQQFKMQLLKGGQILCDLTKTKGSGNTVSIKSLKFCHSQLSNNSVSFFLYNLDHSHANYYFCNLSIFDPPPFKVTLTGGYLH
notes: range 21-129; also called wild-type ICOS
B2: A184 (ligand)
single chain: T1 chain with P51Q, N52H, H57Y, Q100P
notes: Soluble form without Fc; the Fc and atezolizumab fusions are m12, m15 and m18; also called control A184
B3: Dimeric human ICOS (ICOS-Fc) (Fc fusion, UniProt Q9Y6W8 21-140, looked up)
chain: EINGSANYEMFIFHNGGVQILCKYPDIVQQFKMQLLKGGQILCDLTKTKGSGNTVSIKSLKFCHSQLSNNSVSFFLYNLDHSHANYYFCNLSIFDPPPFKVTLTGGYLHIYESQLCCQLK
notes: range 21-140; Fc at the C-terminus of ICOS to induce dimerization; Labeled with Alexa488 when used as probe in the flow cytometry on yeast; also called ICOS-Fc dimer protein; ICOS dimer protein; not shown: GS linker of glycine and serine; Fc region (domain) of human IgG antibody
B4: ICOS-L variant Y8_P51Q (ligand)
chain: T1 chain with P51Q
notes: P51 of Y8 put back to Q; keeps N57H only
B5: ICOS-L variant Y8_H57N (ligand)
chain: T1 chain with H57N
notes: H57 of Y8 put back to N
B6: ICOS-L variant Y8 (ligand)
chain: T1 chain

The target of experiment [1] is T1, ICOS-L variant Y8 fused to antibody Fc …. The experiment is described as follows: ELISA, ICOS-L-Fc coated at 4 ug/ml, His-tagged ICOS monomer titrated, anti-His-HRP. The method, then:
(§1) After washing four times, 50 μl of an anti-His-HRP conjugate was added and reacted at room temperature for 1 hour, and then washed four times. Thereafter, 50 μl of a 1-Step Ultra TMB-ELISA substrate solution (Thermo Fisher Scientific, 34028) was added to develop color, and then added with 50 μl each of 2 M H₂SO₄ to terminate the reaction, and then analyzed using an Epoch microplate spectrophotometer (BioTek).

For experiment [2], the target named is T2, ATZ (H)-A184: ICOS-L A184 variant fused …. The experiment in a line: sandwich ELISA, PD-L1-Fc coated at 40 nM, atezolizumab fusion captured at 200 nM, His-tagged ICOS monomer titrated, anti-His-HRP. The method, then:
(§2) Specifically, 50 μl of 40 nM PD-L1-Fc in 0.05 M Na₂CO₃ (pH 9.6) was dispensed into a Flat Bottom Polystyrene High Bind 96-well microplate (Costar), immobilized at 4° C. for 16 hours, and then blocked with 100 μl of PBS (pH 7.4) containing 0.5% bovine serum albumin (BSA) (Gibco) for 2 hours at room temperature. […] After washing four times, 50 μl of an anti-His-HRP conjugate was added and reacted at room temperature for 1 hour, and then washed four times. Thereafter, 50 μl of a 1-Step Ultra TMB-ELISA substrate solution (Thermo Fisher Scientific, 34028) was added to develop color, and then added with 50 μl each of 2 M H₂SO₄ to terminate the reaction, and then analyzed using an Epoch microplate spectrophotometer (BioTek).
On the technique in general: ELISA stands for enzyme-linked immunosorbent assay.

Experiment [3] addresses T3, ATZ (L)-Y8_H57N: ICOS-L Y8_H57N variant …. The description is as above. As to the method:
as §2

In experiment [4] the target is B3. The experiment in a line: bio-layer interferometry (Octet R8); fold gain of KD over wild-type ICOS-L as printed in the table. Background: In BLI a coated tip is dipped into the sample, and binding shifts an interference pattern.
For experiment [5], the target named is B3. The experiment is described as follows: ELISA, ICOS-Fc coated at 4 ug/ml, ICOS-L variant titrated, anti-His-HRP (x axis printed as PD-L1 CO…ON (nM)). As to the method:
as §1

Experiment [6] deals with B3. The experiment is described as follows: bio-layer interferometry (Octet R8), ICOS-Fc captured on Protein A biosensor, ICOS-L variant in solution; the table prints no units.
The target of another experiment is T4, wild-type ICOS-L. The experiment is described as above.
For the experiment “ICOS-L variant Y8_P51Q”, the target named is B4. Described as above.
In the experiment “ICOS-L variant Y8_H57N” the target is B5. Described as above.
Experiment [7] has as its target B3. The experiment is described as follows: ELISA, ICOS-Fc coated at 4 ug/ml, ICOS-L variant titrated, anti-His-HRP. As to the method:
as §1

Substitutions are numbered along the chain they refer to. Names may count otherwise.

Turning to B1, the EC50 (read off the curve) (in general, the concentration at which the effect is half-maximal) in experiment [1] was about 4 nM; in experiment [2], about 5 nM; in experiment [3], about 9 nM.

As for B2, the “INCREASED MULTIPLE” value in experiment [4] is 4.89. For the same molecule, in experiment [5], the “EC50 (read off the curve)” value is about 20 nM. The equilibrium dissociation constant (Kd) (usually the constant that tells how readily two partners part at equilibrium) in experiment [6] came out at 23.1 nM.

As for B3, the figures for the Kd in the experiment with wild-type ICOS-L, in the experiment with ICOS-L variant Y8_P51Q and with ICOS-L variant Y8_H57N were 113 nM, 23.3 nM and 4.75 nM, respectively.

As for B4, the “INCREASED MULTIPLE” value in [4] was 4.85.

With B5, in experiment [7], the 50% effective concentration (EC50 (read off the curve)) was about 10 nM. For the same molecule, in experiment [4], the “INCREASED MULTIPLE” value was 23.8.

On to B6, for which the results for the “EC50 (read off the curve)” value in experiment [7] and in experiment [5] were about 4 nM and about 6 nM, respectively. For the same molecule, the “INCREASED MULTIPLE” value in experiment [4] came to 95. The molecule also gave a Kd in experiment [6] of 1.19 nM.
